Assay results as given in patent US9969998B2, “Compositions of adenosine deaminase-2 (ADA2), variants thereof and methods of using same” (Halozyme, Inc., priority 2014, dated 2018).
Changes are numbered by the printed parent chain. Numbers in names are those of the source.

Assay: Adenosine deaminase (ADA) enzymatic activity assay kit
Type: biochemical
Conditions: for adenosine deaminase activity mU/mL / ΔA/min, adenosine deaminase activity: protein diluted to 5 μg/mL, serially diluted 2 fold (Table 21); for % activity vs. WT: relative to rHuADA2 WT (Table 21); for Adenosine deaminase activity mU/ml / Adenosine deaminase activity ΔA/min / % of WT activity: purified protein at 5 μg/mL; for % of WT activity: compared to WT-ADA2
Experimental: Adenosine deaminase activity was determined using an adenosine deaminase (ADA) assay kit (Genway, San Diego, Calif.; Cat. No. BQ014EALD) with minor modifications. The ADA assay is based on the enzymatic deamination of adenosine to inosine, which is converted to hypoxanthine by purine nucleoside phosphorylase (PNP). Hypoxanthine is then converted to uric acid and hydrogen peroxide by xanthine oxidase (XOD). Hydrogen peroxide is further reacted with N-Ethyl-N-(2-hydroxy-3-sulfopropyl)-3-methylaniline (EHSPT) and 4-aminoantipyrine (4-AA) in the presence of peroxidase (POD) to generate quinone dye, which is monitored in a kinetic manner.
Briefly, 5 μL samples in duplicates (at appropriate dilutions to measure steady-state, non-saturating enzyme activity) were added to 120 μL R1 reagent (provided by the manufacturer; 50 mM Tris HCL, pH 8.0, 2 mM 4-AA, 0.1 U/mL PNP, 0.2 U/mL XOD, 0.6 U/mL peroxidase) in a 96 well plate, according to manufacturer's instructions. The mixtures were incubated at 37° C. for approximately 5 min and 60 μL of R2 reagent (provided by the manufacturer; 50 mM Tris HCl, pH 4.0, 10 mM Adenosine, 2 mM EHSPT) was added to the mixtures. Then, change in absorbance (AA) at 556 nm over time at 37° C. was measured. One unit of ADA is the amount of ADA that generates one μmole of inosine from adenosine per minute at 37° C. Adenosine deaminase activity in mU/mL was calculated using the following formula: 1 mU/mL=(ΔA/min×Tv)/(Sv×ϵ×1) • where Tv=total volume (185 μL), Sv=sample volume (5 μL), ϵ=32.2×10^−3 μM^−1 cm^−1, 1=0.5 cm.
Adenosine deaminase activity of WT rHuADA2 and variants tested above were determined using the adenosine deaminase activity (ADA) assay described in Example 4. Activity was assessed on purified rHuADA2 WT and variants that were diluted to 5 μg/mL, and then serially diluted 2 fold to generate 4 measurements.
Adenosine deaminase activity of PEGylated rHuADA2 and variants was assessed using the method described in Example 4, and compared to the activity of the corresponding non-PEGylated form.
Selected candidate variants described in Table 8 above, containing an amino acid substitution in a residue that play a role in enzymatic activity, were assessed for their adenosine deaminase activity using the method described in Example 4. To perform the experiments, purified WT rHuADA2 and tested variants were prepared at 5 μg/mL concentration to normalize the amount of protein in each experiment.

B1: K455D: ADA2 variant SEQ ID NO:26 (protein)
chain: IDETRAHLLLKEKMMRLGGRLVLNTKEELANERLMTLKIAEMKEAMRTLIFPPSMHFFQAKHLIERSQVFNILRMMPKGAALHLHDIGIVTMDWLVRNVTYRPHCHICFTPRGIMQFRFAHPTPRPSEKCSKWILLEDYRKRVQNVTEFDDSLLRNFTLVTQHPEVIYTNQNVVWSKFETIFFTISGLIHYAPVFRDYVFRSMQEFYEDNVLYMEIRARLLPVYELSGEHHDEEWSVKTYQEVAQKFVETHPEFIGIKIIYSDHRSKDVAVIAESIRMAMGLRIKFPTVVAGFDLVGHEDTGHSLHDYKEALMIPAKDGVKLPYFFHAGETDWQGTSIDRNILDALMLNTTRIGHGFALSKHPAVRTYSWKKDIPIEVCPISNQVLKLVSDLRNHPVATLMATGHPMVISSDDPAMFGAKGLSYDFYEVFMGIGGMKADLRTLKQLAMNSIDYSTLLESEKNTFMEIWKKRWDKFIADVATK
modifications: human ADA2 K452D, mature numbering
enzymatic activity relative to WT rHuADA2: improved enzymatic activity
adenosine deaminase activity mU/mL: 97.9 mU/mL
ΔA/min, adenosine deaminase activity: 42.6
% activity vs. WT: 125.5%

B2: K16A: ADA2 variant SEQ ID NO:16 (protein)
chain: B1 chain with K13A, D452K
modifications: human ADA2 K13A, mature numbering
adenosine deaminase activity mU/mL: 28 mU/mL
ΔA/min, adenosine deaminase activity: 12.2
% activity vs. WT: 35.9%

B3: L224V: ADA2 variant SEQ ID NO:43 (protein)
chain: B1 chain with L221V, D452K
modifications: human ADA2 L221V, mature numbering
Adenosine deaminase activity mU/ml: 96.1 mU/ml
Adenosine deaminase activity ΔA/min: 41.8 ΔA/min
% of WT activity: 123%

B4: R222A: ADA2 variant SEQ ID NO:41 (protein)
chain: B1 chain with R219A, D452K
modifications: human ADA2 R219A, mature numbering
Adenosine deaminase activity mU/ml: 31.2 mU/ml
Adenosine deaminase activity ΔA/min: 13.6 ΔA/min
% of WT activity: 40%

B5: K16D: ADA2 variant SEQ ID NO:17 (protein)
chain: B1 chain with K13D, D452K
modifications: human ADA2 K13D, mature numbering
adenosine deaminase activity mU/mL: 67.3 mU/mL
ΔA/min, adenosine deaminase activity: 29.3
% activity vs. WT: 86.3%

B6: L224A: ADA2 variant SEQ ID NO:42 (protein)
chain: B1 chain with L221A, D452K
modifications: human ADA2 L221A, mature numbering
Adenosine deaminase activity mU/ml: 100.1 mU/ml
Adenosine deaminase activity ΔA/min: 43.5 ΔA/min
% of WT activity: 128%

B7: K14D: ADA2 variant SEQ ID NO:14 (protein)
chain: B1 chain with K11D, D452K
modifications: human ADA2 K11D, mature numbering
adenosine deaminase activity mU/mL: 18.7 mU/mL
ΔA/min, adenosine deaminase activity: 8.1
% activity vs. WT: 24%

B8: E182V: ADA2 variant SEQ ID NO:49 (protein)
chain: B1 chain with E179V, D452K
modifications: human ADA2 E179V, mature numbering
Adenosine deaminase activity mU/ml: 8 mU/ml
Adenosine deaminase activity ΔA/min: 3.5 ΔA/min
% of WT activity: 10%

B9: E182A: ADA2 variant SEQ ID NO:46 (protein)
chain: B1 chain with E179A, D452K
modifications: human ADA2 E179A, mature numbering
Adenosine deaminase activity mU/ml: 8.6 mU/ml
Adenosine deaminase activity ΔA/min: 3.7 ΔA/min
% of WT activity: 11%

B10: R222K: ADA2 variant SEQ ID NO:38 (protein)
chain: B1 chain with R219K, D452K
modifications: human ADA2 R219K, mature numbering
Adenosine deaminase activity mU/ml: 118.5 mU/ml
Adenosine deaminase activity ΔA/min: 51.5 ΔA/min
% of WT activity: 152%

B11: H267G: ADA2 variant SEQ ID NO:37 (protein)
chain: B1 chain with H264G, D452K
modifications: human ADA2 H264G, mature numbering
Adenosine deaminase activity mU/ml: 119.1 mU/ml
Adenosine deaminase activity ΔA/min: 51.8 ΔA/min
% of WT activity: 153%

B12: E182G: ADA2 variant SEQ ID NO:50 (protein)
chain: B1 chain with E179G, D452K
modifications: human ADA2 E179G, mature numbering
Adenosine deaminase activity mU/ml: 6.9 mU/ml
Adenosine deaminase activity ΔA/min: 3 ΔA/min
% of WT activity: 9%

B13: E182S: ADA2 variant SEQ ID NO:47 (protein)
chain: B1 chain with E179S, D452K
modifications: human ADA2 E179S, mature numbering
Adenosine deaminase activity mU/ml: 9.5 mU/ml
Adenosine deaminase activity ΔA/min: 4.1 ΔA/min
% of WT activity: 12%

B14: K455A: ADA2 variant SEQ ID NO:25 (protein)
chain: B1 chain with D452A
modifications: human ADA2 K452A, mature numbering
adenosine deaminase activity mU/mL: 14 mU/mL
ΔA/min, adenosine deaminase activity: 6.1
% activity vs. WT: 18%

B15: H267N: ADA2 variant SEQ ID NO:36 (protein)
chain: B1 chain with H264N, D452K
modifications: human ADA2 H264N, mature numbering
Adenosine deaminase activity mU/ml: 50.4 mU/ml
Adenosine deaminase activity ΔA/min: 21.9 ΔA/min
% of WT activity: 65%

B16: K16E: ADA2 variant SEQ ID NO:18 (protein)
chain: B1 chain with K13E, D452K
modifications: human ADA2 K13E, mature numbering
adenosine deaminase activity mU/mL: 16.3 mU/mL
ΔA/min, adenosine deaminase activity: 7.1
% activity vs. WT: 20.9%

B17: E182D: ADA2 variant SEQ ID NO:45 (protein)
chain: B1 chain with E179D, D452K
modifications: human ADA2 E179D, mature numbering
Adenosine deaminase activity mU/ml: 18.1 mU/ml
Adenosine deaminase activity ΔA/min: 7.8 ΔA/min
% of WT activity: 23%

B18: K14A: ADA2 variant SEQ ID NO:13 (protein)
chain: B1 chain with K11A, D452K
modifications: human ADA2 K11A, mature numbering
adenosine deaminase activity mU/mL: 11.4 mU/mL
ΔA/min, adenosine deaminase activity: 4.9
% activity vs. WT: 14.6%

B19: R222N: ADA2 variant SEQ ID NO:40 (protein)
chain: B1 chain with R219N, D452K
modifications: human ADA2 R219N, mature numbering
Adenosine deaminase activity mU/ml: 81.5 mU/ml
Adenosine deaminase activity ΔA/min: 35.4 ΔA/min
% of WT activity: 104%

B20: L224G: ADA2 variant SEQ ID NO:44 (protein)
chain: B1 chain with L221G, D452K
modifications: human ADA2 L221G, mature numbering
Adenosine deaminase activity mU/ml: 88.2 mU/ml
Adenosine deaminase activity ΔA/min: 38.3 ΔA/min
% of WT activity: 113%

B21: E182T: ADA2 variant SEQ ID NO:48 (protein)
chain: B1 chain with E179T, D452K
modifications: human ADA2 E179T, mature numbering
Adenosine deaminase activity mU/ml: 6.2 mU/ml
Adenosine deaminase activity ΔA/min: 2.7 ΔA/min
% of WT activity: 8%
